Experimental data reported in PMC10789646, “Uncovering the non-histone interactome of the BRPF1 bromodomain using site-specific azide-acetyllysine photochemistry” (The Journal of Biological Chemistry, 2023).
Where no end group is shown, it is not given here.

B1: WT BRPF1 bromodomain (domain or fragment)
chain: MEMQLTPFLILLRKTLEQLQEKDTGNIFSEPVPLSEVPDYLDHIKKPMDFFTMKQNLEAYRYLNFDDFEEDFNLIVSNCLKYNAKDTIFYRAAVRLREQGGAVLRQARRQAEKMG
notes: bromodomain of bromodomain-PHD finger protein 1 (BRPF1); vector pNIC28-Bsa4; also called bromodomain-PHD finger protein 1 bromodomain; source: E. coli One Shot BL21 star (DE3), purified (Ni-NTA, Superdex-75)

What was measured:
[1] = target: histone H4K5acK8ac peptide 2 (acetyl-lysine at K5 and K8); assay: ITC; peptide (1.5 to 1.8 mM, syringe) injected into protein (80 to 100 μM, cell); 15 °C; 50 mM Hepes pH 7.5, 200 mM NaCl, 5% glycerol; single-binding site model; details: both partners purified
WT BRPF1 bromodomain = target: B1; assay: as above; details: both partners purified

Kd [1] [µM]	Kd (WT BRPF1 bromodomain) [µM]	Binder
24.6 ± 3.1		B1
21.6 ± 2.1		BRPF1 bromodomain N651AzF (domain or fragment, 4-azido-L-phenylalanine (AzF) at 651, bromodomain of BRPF1 with the unnatural amino acid 4-azido-L-phenylalanine in place of N651; also called BRPF1-N651AzF; engineered BRPF1 bromodomain; source: E. coli One Shot BL21 Star (DE3) with pEVOL-pAzF (amber suppression), purified (Ni-NTA, Superdex-75); not shown: 6xHis, N-terminal, kept) MEMQLTPFLILLRKTLEQLQEKDTGFIFSEPVPLSEVPDYLDHIKKPMDFFTMKQNLEAYRYLNFDDFEEDFNLIVSNCLKYNAKDTIFYRAAVRLREQGGAVLRQARRQAEKMG
	250 ± 10.2	RVGLVAK(Ac)GLLLK(Ac)G (holds the KGLLLK (100-105) motif; also called RVGLVAKacGLLLKacG 8; source: synthetic peptide (GL Biochem Ltd and S. Biochem Ltd, HPLC purified)) [diacetylated ILF3 peptide 8]
